Test results as given in article PMC3739937 (Molecular Microbiology, 2013).

T1: Colicin N (E. coli, UniProt P08083 1-387)
T1 sequence (looked up): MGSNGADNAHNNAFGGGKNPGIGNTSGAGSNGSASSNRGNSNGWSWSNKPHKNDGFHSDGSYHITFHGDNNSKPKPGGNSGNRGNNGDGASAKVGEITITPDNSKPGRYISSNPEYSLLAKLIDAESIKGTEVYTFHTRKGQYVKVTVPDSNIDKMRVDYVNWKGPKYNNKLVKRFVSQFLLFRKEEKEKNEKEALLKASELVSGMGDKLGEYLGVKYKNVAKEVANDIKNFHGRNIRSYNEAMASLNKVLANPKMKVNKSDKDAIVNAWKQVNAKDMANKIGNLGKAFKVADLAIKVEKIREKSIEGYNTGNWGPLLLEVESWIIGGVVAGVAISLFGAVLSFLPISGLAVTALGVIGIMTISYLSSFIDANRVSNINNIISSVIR

B1: OmpF (natural protein, E. coli, UniProt P02931 23-362, looked up)
chain: AEIYNKDGNKVDLYGKAVGLHYFSKGNGENSYGGNGDMTYARLGFKGETQINSDLTGYGQWEYNFQGNNSEGADAQTGNKTRLAFAGLKYADVGSFDYGRNYGVVYDALGYTDMLPEFGGDTAYSDDFFVGRVGGVATYRNSNFFGLVDGLNFAVQYLGKNERDTARRSNGDGVGGSISYEYEGFGIVGAYGAADRTNLQEAQPLGNGKKAEQWATGLKYDANNIYLAANYGETRNATPITNKFTNTSGFANKTQDVLLVAQYQFDFGLRPSIAYTKSKAKDVEGIGDVDLVNYFEVGATYYFNKNMSTYVDYIINQIDSDNKLGVGSDDTVAVGIVYQF
B2: ColN-T (isolated unstructured T-domain of colicin N) (domain or fragment, E. coli, UniProt P08083 1-90, looked up)
chain: MGSNGADNAHNNAFGGGKNPGIGNTSGAGSNGSASSNRGNSNGWSWSNKPHKNDGFHSDGSYHITFHGDNNSKPKPGGNSGNRGNNGDGA

Columns and labels:
[1] = target: T1, Colicin N; assay: ITC
[2] = target: B1; assay: ITC

Row | Binder | binding result [1] | Kd [2] [µM] | dH [2] [kcal/mol] | stoichiometry N [2]
1 | B1 | binds |  |  | 
2 | B2 |  | 3.48 | -19.1 | 2.29
